Data reported in the nanobody polyreactivity screen of Harvey et al. (2022).

assay: yeast display, Sf9 membrane polyspecificity reagent, FACS + sequencing; frameworks hold sequencing errors
Outline: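 Sorting gates, low and high (top ~1%), were placed on anti-HA fluorescence to track expression and on streptavidin fluorescence to track reagent binding. A clone's polyreactivity label is taken from the gate it came out of. The reagent was 10% biotinylated, detergent-solubilized Sf9 membrane, applied for 1 hour at 4 °C to galactose-induced yeast display cells.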

Sequence | polyreactivity (PSR sort gate)
QVQLVESGGGLVQAGGSLRLSCAASGSIFPSYAMGWYRQAPGKERELVATISGSGTSTYYADSVKGRFTISRDNAKNTVYLQMNSLKPEDTAVYYSAADPWLGTGRYDYWGQGTQVTVSS | low polyreactivity
QFQLVESGVVLVQAAASLRLSCAASGIIFQRNDMGWNRQAPGKETDLVANIRDGGITNADSVKGRFTISRDNAKNTVYLQMNCLKPEDTAVYYCARDDTSPGYGDQSSNAAYYYWGQGTQVTVSS | low polyreactivity
QVQLVESGGGLVQAGGSLRLSCAASGRIFGTNAMGWYRQAPGKESELVATITRGGGNTYYADSVKGRFTISRDNAKNTVYLQMNSLKQEDTAVYYCNTRRLHGWLYGYEYWGQGTQVTVSS | low polyreactivity
QVQLVESGGGLVQAGGSLRLRCAASGSIFHSYAMAWYSQAPGKEREMVASITASVDSTYYADSVKGRFTISRDNAKNTVYLQMNSLIPEDTAVYYCAAEAQFNFYSYDFWGQGTQVTVSS | low polyreactivity
QVQLVESCGCLVQAGCSLRLSCAASGSTFQGYAMGWYRQAPGKERELVAAITIRGTRTYYADSVKGRFTISRDNAKNTVYLQMNSLKPEDTAVYYCAAYDYRHLEDKYDYWGQGTQVTVSS | high polyreactivity
QFQLVESAVVLVQAGGSLRLSCAASGGIFGSYAMGWYRQAPGKEMEFVAAIRYGSGSQYYADSVKGRFTISRDNAKNTVYLQMNSLKPEDTAVYYCATEYWGVYGYGFIYDYWGQGTQVTVSS | low polyreactivity
QVQLVESGGGLVQAGGSLRLSCAASGFTFSHYAMGWYRQAPGKERELVAAISWGGGSTYYADSVKGRFTISRDNAKNTVYLQMKSLIPEDTAVYYCARDVVYRGYYYGAFDYCGQGTQVTVSS | low polyreactivity
QVQLVESGGGLVQAGGSLRLSCAASGNTFGNYGKGWYRQAPGKEREFVAAITSRGTSTYYADSVKGRFTISRDNAKNTVYLQMNSLKPEDTAVYYCNARPRYKYPRYDYWGQGTQVTVSS | high polyreactivity
QVQLVESGGGLVQAGGSLRLSCAASGFTFRQYAMGGYGQAPGKEREWVASIRNGGSTNYADSVKGRFTISRDNAKNTDYFQMITLKPEDTALYYCSQRHSRTNMYYWGQGTQVTVSS | high polyreactivity
QVQLVESGGGLVQAGGSLRLSCAASGSIFLKYAMGWYRQAPGKERELVATISRGGSTNYADSVKGRFTISRDNAKNTVYLLMNSLKPEYTAVYYCAAKYGRPYGTYGYWGQGTQVTVSS | high polyreactivity
QVQLVESGGGLVQAGGRLRLSCAASGFTFGDNAMGWYRQAPGKERELVAAITSSGSTNYADSVKGRFTISRDNAKNTVYLQMNSLKPEDTAVYYCNAEDSVDAPVYKDLGSEYDSWGQGTQVTVSS | low polyreactivity
QVQLVESGGGLVQAGGSLRLSCAASGRIFRRYVMGWYRQAPGKERELVARIRIRDSNTYYADSVKGRFTISRDNAKNTVYLQMNSLKPEDTAVYYCNADTWADRSTYDYWGQGTQVTVSS | low polyreactivity
QVQLVESGGGLVQAGGSLRLSCAASGFTFSDYAMGSNRQAPGKERELVAAITSRTGTTYYADSVKWRFTISRDNAKNTVYLQMNSLKPEDTAVYYCNKVKFRSQDMDYWGQGTQVTVSS | high polyreactivity
QVQLVESGGGLLQAGGSLRLSCAASGSTFVYYAMGWYRQAPGKERELVAAISRSGGNTYYADSVKGRITISRDNAKNTVYLQRNSLKPEDTAVYYSAARSYGVQYYYWGQGTKVTVSS | high polyreactivity
QVQLVESGGGLVQAGGSLRLSCAASGSIFYRYAIGWYRHPPGKERELVAAITRGGTTYYADSVKGRFTISRDNAKNTVYLQMNSLKPEDSAVYYCAARLRYTTVIYYYWGQGTQVTVSS | high polyreactivity
QVQLVESGGGLVQAGGSLRLSCAASGSTFSYNAMGWYRQAPGKERELVATITTGGRTSYADSVKGRFTISRDNAKNTVYLQMNSLKPEDTAVYYCAAVGRFSSRPRVVYYGYDYWGQGTQVTVSS | low polyreactivity
QVQLQESGGGLVQAGGSLRLGCAASGNISDAGYMGWYRQAPGKEREFVAAIAAGSNTNYADSVKGRFTISRDNAKNTVYLQMNSLKPEDTAVFYCAVGSYARVQYEYWGQGTQVTVNS | low polyreactivity
QVQLVESGGGLVQAGGSLRLSCAASGRIFTDNAMGWYRQAPGKERELVAAISWDGSSTSYADSVKGRFTISRDNAKNTVYLQMNSLKPEDTAVYDCAAVLYSGLYWYRLDYWGQGTRVTVSS | low polyreactivity
QVQLVESGGGLVQAGGSLRLSCAASGRILYYYVMGWYRPAPGKEREFVAAISSSASNTYYADSVKGRITISRDNAKNTVEFQMNSLKPEDTAVYYCAADTLWLDWQGYDYWGQGTQVTVSS | low polyreactivity
QVQLVESGGGLVQAGGSLRLSCAASGIIFYDYAMGWYRQAPGKERELVAAITSSGGSTYYADSVKGRFTISRDNAKNTVYLQMNSLKPEDTAVYYCADATRGSGRRYDYWGQGTQVTVSS | high polyreactivity
QVQLVESGGGLVQAGGSLRLSSASSGRTFYKYAMGWYRQAPGKERELVAAISRRGGSTYYADSVKGRFTISRDNAKNTVYLQMNSLKPEDSAVYYCAAGGSVAFYYWGQGTQVTVSS | high polyreactivity

Sequence | polyreactivity (PSR sort gate)
QVQLVESGGGLVQAGGRLRLSCAASGSTFFAYAMGWYRQAPGKQRELVAAITGRGSTYYADSVKGRFTISRDNAKNTVYLQMNSLKAEDTAVYYCAAQRSRRYYRLDFWGQGTQVTVSS | high polyreactivity
QVQLVESGGGLVQAGGSLRLSCAASGRTFARYAKGWYRQAPGKERELVAVISRTGSTYYADSVKGRFTISRDNAKNTVYLQMNSLKPEDTAVYYCATVYYYLAYGWSYSDMDYWGQGTQVTVSS | high polyreactivity
QGQLVESGGGLVQAGGSLRLSCAASGSIFFGNAMGWYRQAPGKERELVAGITGGGSTYYADSVKGRFTISRDNAKNTVYLQMNSLKPEDTAVYYCNKKAYRKTGMDYWGQGTQVTVSS | low polyreactivity
QVQLVESGGGLVQAGGSLRLSCAASGSIFSNYAMGWYRQAPGKERELVAAISRNGGSTSYADSVKGRFTISRDNAKNTVYLQMNSLKPEDTAVYYCAAVYVTGSYRYGYWGQGTQVTVSS | high polyreactivity
QVQLVESGGGLVQAGGSLRLSCAASGRICWGYAMGWSRQAPGKERELVARITSGGDTYYADSVKGRFTISRDNAKNTVYLQMNSLKPEDTAVYYCAKSPAVKPYAYRESGFIYDYWGQGTQVTVSS | low polyreactivity
QVQLVESGGGLVQAGGSLRLSCAASGSIFIYYAMGWYRQAPGKERELVAGININGGSTYYADSVKGRFTISRDNAKNTVYLQMNSLKPEDTAVYYCAADELWWTYWDFVTNWYQRDYWGQGTQVTVSS | low polyreactivity
QVQLVESGGGLVQAGGSLRLSCAASGRTFVTNAMGWYRQAPGKERELVAAISSSGGSTYYADSVKGRFTISRDNAKNTVYLQMNSLKPEDTAVYYCAVGGQTKGQYDYWGQVTQVTVSS | low polyreactivity
QVQLVESGGGLVQAGASLRLSCAASGSTFYVNAMGWYRQAPGKERELVASISSSSGSTYYADSVKRRFTISRDNAKNTVYFQMNSLKPEDTAVYYCAAEVGIFIWFDYWGQGTQVTVSS | low polyreactivity
QVQLVESGGRLVQAGGSLRLSCAASGSIFRSYAMGWYRQAPGKERELVATISSSTGSTYYADSVKGRFTISRDNAKNTVYLQRNSLKPEDTAVYYCNAQRRWSIYGYFYYWGQGTQVTVSS | high polyreactivity
QVQLVESGGGLVQAGGSLRLSCAASRRTFANYAMGWYRQAPGKERELVAAISRSGGSTYYADSVKGRFTISRDNAKNSVYLQMKSLKPEDTAVYYCAARYVRQYYRAEDYWGQGTHVTVSS | high polyreactivity
QVQLEESGGGLVQAGGSLRLSCASYGRIFPFYALGWYRQAPRKERELVARISRRGGSTYYADSVKGRFTISRDNAKNNVYLQMNSLKPEDTAVYYCASSQAVYDGWYAKFGYWGQGTQVTVSS | low polyreactivity
QVQLVESGGGLVQAGGSLRLSCAASGRIFYRYAMGWYRQAPGKERELVASISGSGGRTYYADSVKGRFTISRDNAKNTVYLQMNSLKPEDTAVYYCAARIRPSYDWGQGTQVTVSS | high polyreactivity
QVQLVESGGGLVQAGGSLRLSCAASGRTFSRNAMGWYRQAPGKERELVAAISQSGGRTYYADSVKGRFTISRDNAKNTVYLQMNSLKPEDTAVYYCAAAGTRKALTEYDYWGQGTQVTLSS | high polyreactivity
QVQLVESGGGLVPAGGSLRLSCAASGSTFAKYAMGWYRQAPGKERELVASIRLSGGSTYYADSVKGRFTISRDHAQNTVYLQMNSLKPEDTAVYYCNKQFATFYYGFHYYYWGQGTQVTVSS | low polyreactivity
QVQLVESGGGLVKAGGSLRLSCAASGRTFSRYAMGWYRQAPGTEGEVVAAISYSGASTYYADSVKGRFTISRDNAKNTVYLQMNSLKPEDTAVSYCAARAPGPAPPQIRYGYWGQGTQVTVSS | high polyreactivity
QVQLVESGGGLVQAGGSLRLSCAASGFIFTKYTKGWYRPAPGTERELVAAIRSDGVRTYYADSVKGRFTISRDNAKNTVYLQMNSLKPEDTAVYYCAAYKAVPHYYYWGQGTQVTVSS | high polyreactivity
QVQLVESGGGLVQAGGSLRLSCAASGSIFPGYAMGWYRQAPGKERELVADITSGDTTKYADSVKGRFTISRDNAKNNVYLQMNSLKPEDTAVYYCAADDYLTDFDYWGQGTQVTVSS | low polyreactivity
QVQLVESGGGLVQAGGSLRLSCAASGRIFYTYAMGWYRQAPGKERELVAAITTSGGRTYYADSVKGRFTISRDNAKNTVYLQMNSLKPEDTAVYYCNKLSSDSYNYWGQGTQVTVSS | high polyreactivity
QDQLVESGGGLVQAGGSLRLSCAASGSRLGGYAMGWYRQAPGKERELVAAITWNGGRTYYADSVKWRFTISRDNAKNTVYLQMNILKPEDTAVYYCAADYSKGYEYWGQVTQVTVSS | high polyreactivity
QVQLVESGGGIVQAGGSLRLSCAASGLTIPPNAMGWYRQAPGKEREFVAAITWSGGSTYYADSVKGRFTISRDNAKNTVYLQMNRLKPEDSAVYYCNRVTAYYPTKFDYWGQGTQVTVSS | high polyreactivity
